Source: IntAct's records for PubMed 29039417

B1: Protein PTHB1 (Homo sapiens), Q3SYG4 (parent)
chain: MSLFKARDWWSTILGDKEEFDQGCLCLANVDNSGNGQDKIIVGSFMGYLRIFSPHPAKTGDGAQAEDLLLEVDLRDPVLQVEVGKFVSGTEMLHLAVLHSRKLCVYSVSGTLGNVEHGNQCQMKLMYEHNLQRTACNMTYGSFGGVKGRDLICIQSMDGMLMVFEQESYAFGRFLPGFLLPGPLAYSSRTDSFLTVSSCQQVESYKYQVLAFATDADKRQETEQQKLGSGKRLVVDWTLNIGEQALDICIVSFNQSASSVFVLGERNFFCLKDNGQIRFMKKLDWSPSCFLPYCSVSEGTINTLIGNHNNMLHIYQDVTLKWATQLPHIPVAVRVGCLHDLKGVIVTLSDDGHLQCSYLGTDPSLFQAPNVQSRELNYDELDVEMKELQKIIKDVNKSQGVWPMTEREDDLNVSVVVSPNFDSVSQATDVEVGTDLVPSVTVKVTLQNRVILQKAKLSVYVQPPLELTCDQFTFEFMTPDLTRTVSFSVYLKRSYTPSELEGNAVVSYSRPTDRNPDGIPRVIQCKFRLPLKLICLPGQPSKTASHKITIDTNKSPVSLLSLFPGFASQSDDDQVNVMGFHFLGGARITVLASKTSQRYRIQSEQFEDLWLITNELILRLQEYFEKQGVKDFACSFSGSIPLQEYFELIDHHFELRINGEKLEELLSERAVQFRAIQRRLLARFKDKTPAPLQHLDTLLDGTYKQVIALADAVEENQGNLFQSFTRLKSATHLVILLIALWQKLSADQVAILEAAFLPLQEDTQELGWEETVDAAISHLLKTCLSKSSKEQALNLNSQLNIPKDTSQLKKHITLLCDRLSKGGRLCLSTDAAAPQTMVMPGGCTTIPESDLEERSVEQDSTELFTNHRHLTAETPRPEVSPLQGVSE
partner: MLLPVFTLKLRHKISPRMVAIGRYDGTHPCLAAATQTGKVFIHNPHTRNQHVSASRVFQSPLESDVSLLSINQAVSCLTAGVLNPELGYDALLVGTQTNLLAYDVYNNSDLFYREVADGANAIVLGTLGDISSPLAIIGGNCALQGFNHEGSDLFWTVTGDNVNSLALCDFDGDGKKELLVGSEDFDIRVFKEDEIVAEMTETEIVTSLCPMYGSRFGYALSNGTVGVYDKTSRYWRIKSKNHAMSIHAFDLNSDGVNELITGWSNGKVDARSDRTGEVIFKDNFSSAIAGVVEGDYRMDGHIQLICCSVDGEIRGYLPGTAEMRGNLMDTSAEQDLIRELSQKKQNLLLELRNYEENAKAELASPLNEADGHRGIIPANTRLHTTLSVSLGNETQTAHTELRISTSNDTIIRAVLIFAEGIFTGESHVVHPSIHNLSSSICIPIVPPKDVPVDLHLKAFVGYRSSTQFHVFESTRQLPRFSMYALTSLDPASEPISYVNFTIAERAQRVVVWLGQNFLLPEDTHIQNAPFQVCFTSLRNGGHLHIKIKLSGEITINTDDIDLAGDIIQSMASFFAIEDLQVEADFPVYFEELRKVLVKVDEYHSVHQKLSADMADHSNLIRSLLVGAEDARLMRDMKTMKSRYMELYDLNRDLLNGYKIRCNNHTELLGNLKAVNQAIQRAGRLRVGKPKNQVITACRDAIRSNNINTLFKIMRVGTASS

Variants of: B1
Settings: with bbs2_human BBS2, Q9BXC9

Variant	effect of a mutation on the interaction
E761K	with no effect
E761A	with no effect
I776K	with no effect
I776A	with no effect
I776E	with no effect
A775E	with no effect
A775K	with no effect
A775T	disrupting interaction strength
L779A	with no effect
L779E	with no effect
Q764A	with no effect
Q764K	with no effect
Q764E	with no effect
D747A	with no effect
D747K	with no effect
D747E	with no effect
F756A	with no effect
F756E	with no effect
F756K	with no effect
G767A	with no effect
G767E	with no effect
G767K	with no effect
L752A	with no effect

Variant	effect of a mutation on the interaction
L752E	with no effect
L752K	with no effect
A746E	with no effect
A746K	with no effect
D762A	with no effect
D762E	with no effect
D762K	with no effect
A754E	with no effect
A754K	with no effect
S777E	with no effect
S777K	with no effect
S777A	with no effect
L757E	with no effect
L757K	with no effect
L757A	with no effect
E769K	with no effect
E769A	with no effect
Q748L	disrupting interaction strength
Q748K	disrupting interaction strength
Q748E	with no effect
Q748A	with no effect
A774K	with no effect
A774E	with no effect

Variant	effect of a mutation on the interaction
E765K	with no effect
E765A	with no effect
I751K	with no effect
I751E	with no effect
I751A	with no effect
H778E	with no effect
H778A	with no effect
H778K	with no effect
A755K	with no effect
A755E	with no effect
E753A	with no effect
E753K	with no effect
T763K	with no effect
T763E	with no effect
T763A	with no effect
V749E	with no effect
V749K	with no effect
V749A	with no effect
Q760K	with no effect
Q760E	with no effect
Q760A	with no effect
P758E	with no effect
P758A	with no effect

Variant	effect of a mutation on the interaction
P758K	with no effect
L759K	with no effect
L759E	with no effect
L759A	with no effect
W768E	with no effect
W768K	with no effect
W768A	with no effect
D773E	with no effect
D773K	with no effect
D773A	with no effect
A750K	with no effect
A750E	with no effect
L766A	with no effect
L766E	with no effect
L766K	with no effect
V772A	disrupting interaction strength
V772E	with no effect
V772K	with no effect
E770A	with no effect
E770K	with no effect
T771A	with no effect
T771E	with no effect
T771K	with no effect
